Read-outs that look alike come from different tables or passages of the source. Ends that are not written are not given here. * marks the point of attachment. Cholyl = C[C@H](CCC(=O)*)[C@H]1CC[C@H]2[C@@H]3[C@H](O)C[C@@H]4C[C@H](O)CC[C@]4(C)[C@H]3C[C@H](O)[C@]12C
Legend:
Assay in all cases: cell-based or functional assay
[1] = target: natural β-amyloid peptide β-AP1-40 (human)
[2] = target: natural β-amyloid peptide β-AP1-40 (human); remark: listed apart in the source
Target sequence in this assay (peptide, as listed by the source): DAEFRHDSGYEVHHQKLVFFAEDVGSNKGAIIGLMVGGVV

[3] = target: natural β-amyloid peptide β-AP1-40 (human); remark: listed apart in the source
Target sequence in this assay (peptide, as listed by the source): as above

[4] = target: natural β-amyloid peptide β-AP1-40 (human); remark: listed apart in the source

Row | % Inhibition of Plateau; nucleation assay; 100 mole % [1] [%] | Fold Increase in Lag Time; nucleation assay; 100 mole % [1] [fold] | Binder | other results
1 | 47 | ~1 | EVHHQKLVFFAEDVG [unmodified Aβ11-25] | 
2 |  |  | Cholyl-HDSGYEVHHQKLVFF [cholyl-Aβ6-20] | % Inhibition of Plateau; nucleation assay; 10 mole % [2]: 43%; Fold Increase in Lag Time; nucleation assay; 10 mole % [2]: 2 fold; % Inhibition of Plateau; nucleation assay; 100 mole % [3]: 100%; Fold Increase in Lag Time; nucleation assay; 100 mole % [3]: > 4.5 fold; % Inhibition of Plateau; nucleation assay; 100 mole % [4]: 100%; Fold Increase in Lag Time; nucleation assay; 10 mole % [4]: 2 fold; Fold Increase in Lag Time; nucleation assay; 100 mole % [4]: > 4.5 fold
3 | ~0 | ~1.2 | DAEFRHDSGYKLVFFAEDVGSNKGAIIGLMVGGVV [Aβ1-10, 16-40(Δ11-15)] | 
4 | ~0 | 1.55 | DAEFRHDSGYEVHHQAEDVGSNKGAIIGLMVGGVV [Aβ1-15, 21-40(Δ16-20)] | 
5 | ~0 | ~1 | AEDVGSNKGAIIGLM [unmodified Aβ21-35] | 
6 | 100 | > 4.5 | KLVFFAEDVGSNKGA [unmodified Aβ16-30] | 
7 | 76 | 1.66 | HDSGYEVHHQKLVFF [unmodified Aβ6-20] | 
8 | 18 | ~1 | DAEFRHDSGYEVHHQ [unmodified Aβ1-15] | 
9 | ~0 | 2.37 | DAEFRHDSGYEVHHQKLVFFSNKGAIIGLMVGGVV [Aβ1-20, 26-40(Δ21-25)] | 
10 | ~0 | 0.8 | SNKGAIIGLMVGGVV [unmodified Aβ26-40] | 

Source: patent US7658917 (PRAECIS PHARMACEUTICALS, dated 2010)
